How the values were obtained:
GFP-14-3-3β = GFP-14-3-3β co-IP with LC-MS/MS, untreated GFP-14-3-3β versus GFP control (14-3-3 interactome); format: binding, human; details: 3 replicates each
[1] = test system: GFP-14-3-3β and its binding proteins; assay: GFP-14-3-3β co-IP with LC-MS/MS label-free quantification, untreated versus PP1c-treated; parameters: species or system human; details: 3 replicates each
[2] = untreated vs GFP, LFQ intensities
[3] = PP1 vs untreated, LFQ intensities

Difference (log2), PP1 vs untreated [1, 3] | Difference (log2), PP1 vs untreated ([1]; log2 difference, pairwise comparison PP1 vs untreated, label-free quantification) | Molecule | Difference (log2), untreated vs GFP (GFP-14-3-3β; [2]) | Difference (log2), untreated vs GFP (GFP-14-3-3β; log2 difference, pairwise comparison untreated vs GFP, label-free quantification)
0.4707 log2 | – | C14orf166 (protein, UniProt Q9Y224 1-244, looked up) RNA transcription, …: MFRRKLTALDYHNPAGFNCKDETEFRNFIVWLEDQKIRHYKIEDRGNLRNIHSSDWPKFFEKYLRDVNCPFKIQDRQEAIDWLLGLAVRLEYGDNAEKYKDLVPDNSKTADNATKNAEPLINLDVNNPDFKAGVMALANLLQIQRHDDYLVMLKAIRILVQERLTQDAVAKANQTKEGLPVALDKHILGFDTGDAVLNEAAQILRLLHIEELRELQTKINEAIVAVQAIIADPKTDHRLGKVGR | 1.488 log2 | –
0.4916 log2 | – | PKP2 (protein, UniProt Q99959 1-881, looked up) Plakophilin-2: MAAPGAPAEYGYIRTVLGQQILGQLDSSSLALPSEAKLKLAGSSGRGGQTVKSLRIQEQVQQTLARKGRSSVGNGNLHRTSSVPEYVYNLHLVENDFVGGRSPVPKTYDMLKAGTTATYEGRWGRGTAQYSSQKSVEERSLRHPLRRLEISPDSSPERAHYTHSDYQYSQRSQAGHTLHHQESRRAALLVPPRYARSEIVGVSRAGTTSRQRHFDTYHRQYQHGSVSDTVFDSIPANPALLTYPRPGTSRSMGNLLEKENYLTAGLTVGQVRPLVPLQPVTQNRASRSSWHQSSFHSTRTLREAGPSVAVDSSGRRAHLTVGQAAAGGSGNLLTERSTFTDSQLGNADMEMTLERAVSMLEADHMLPSRISAAATFIQHECFQKSEARKRVNQLRGILKLLQLLKVQNEDVQRAVCGALRNLVFEDNDNKLEVAELNGVPRLLQVLKQTRDLETKKQITDHTVNLRSRNGWPGAVAHACNPSTLGGQGGRITRSGVRDQPDQHGLLWNLSSNDKLKNLMITEALLTLTENIIIPFSGWPEGDYPKANGLLDFDIFYNVTGCLRNMSSAGADGRKAMRRCDGLIDSLVHYVRGTIADYQPDDKATENCVCILHNLSYQLEAELPEKYSQNIYIQNRNIQTDNNKSIGCFGSRSRKVKEQYQDVPMPEEKSNPKGVEWLWHSIVIRMYLSLIAKSVRNYTQEASLGALQNLTAGSGPMPTSVAQTVVQKESGLQHTRKMLHVGDPSVKKTAISLLRNLSRNLSLQNEIAKETLPDLVSIIPDTVPSTDLLIETTASACYTLNNIIQNSYQNARDLLNTGGIQKIMAISAGDAYASNKASKAASVLLYSLWAHTELHHAYKKAQFKKTDFVNSRTAKAYHSLKD | 1.704 log2 | –
0.5082 log2 | – | DDX5 (protein, UniProt P17844 1-614, looked up) Probable ATP-dependent RNA …: MSGYSSDRDRGRDRGFGAPRFGGSRAGPLSGKKFGNPGEKLVKKKWNLDELPKFEKNFYQEHPDLARRTAQEVETYRRSKEITVRGHNCPKPVLNFYEANFPANVMDVIARQNFTEPTAIQAQGWPVALSGLDMVGVAQTGSGKTLSYLLPAIVHINHQPFLERGDGPICLVLAPTRELAQQVQQVAAEYCRACRLKSTCIYGGAPKGPQIRDLERGVEICIATPGRLIDFLECGKTNLRRTTYLVLDEADRMLDMGFEPQIRKIVDQIRPDRQTLMWSATWPKEVRQLAEDFLKDYIHINIGALELSANHNILQIVDVCHDVEKDEKLIRLMEEIMSEKENKTIVFVETKRRCDELTRKMRRDGWPAMGIHGDKSQQERDWVLNEFKHGKAPILIATDVASRGLDVEDVKFVINYDYPNSSEDYIHRIGRTARSTKTGTAYTFFTPNNIKQVSDLISVLREANQAINPKLLQLVEDRGSGRSRGRGGMKDDRRDRYSAGKRGGFNTFRDRENYDRGYSSLLKRDFGAKTQNGVYSAANYTNGSFGSNFVSAGIQTSFRTGNPTGTYQNGYDSTQQYGSNVPNMHNGMNQQAYAYPATAAAPMIGYPMPTGYSQ | 0.1802 log2 | –
0.4773 log2 | – | ATP5C1 (protein, UniProt P36542 26-298, looked up) ATP synthase F(1) complex …: ATLKDITRRLKSIKNIQKITKSMKMVAAAKYARAERELKPARIYGLGSLALYEKADIKGPEDKKKHLLIGVSSDRGLCGAIHSSIAKQMKSEVATLTAAGKEVMLVGIGDKIRGILYRTHSDQFLVAFKEVGRKPPTFGDASVIALELLNSGYEFDEGSIIFNKFRSVISYKTEEKPIFSLNTVASADSMSIYDDIDADVLQNYQEYNLANIIYYSLKESTTSEQSARMTAMDNASKNASEMIDKLTLTFNRTRQAVITKELIEIISGAAALD | 1.174 log2 | –
0.5259 log2 | – | PABPC4 (protein, UniProt Q13310 1-644, looked up) Polyadenylate-binding protein …: MNAAASSYPMASLYVGDLHSDVTEAMLYEKFSPAGPVLSIRVCRDMITRRSLGYAYVNFQQPADAERALDTMNFDVIKGKPIRIMWSQRDPSLRKSGVGNVFIKNLDKSIDNKALYDTFSAFGNILSCKVVCDENGSKGYAFVHFETQEAADKAIEKMNGMLLNDRKVFVGRFKSRKEREAELGAKAKEFTNVYIKNFGEEVDDESLKELFSQFGKTLSVKVMRDPNGKSKGFGFVSYEKHEDANKAVEEMNGKEISGKIIFVGRAQKKVERQAELKRKFEQLKQERISRYQGVNLYIKNLDDTIDDEKLRKEFSPFGSITSAKVMLEDGRSKGFGFVCFSSPEEATKAVTEMNGRIVGSKPLYVALAQRKEERKAHLTNQYMQRVAGMRALPANAILNQFQPAAGGYFVPAVPQAQGRPPYYTPNQLAQMRPNPRWQQGGRPQGFQGMPSAIRQSGPRPTLRHLAPTGSECPDRLAMDFGGAGAAQQGLTDSCQSGGVPTAVQNLAPRAAVAAAAPRAVAPYKYASSVRSPHPAIQPLQAPQPAVHVQGQEPLTASMLAAAPPQEQKQMLGERLFPLIQTMHSNLAGKITGMLLEIDNSELLHMLESPESLRSKVDEAVAVLQAHHAKKEAAQKVGAVAAATS | 2.4022 log2 | –

Continued, molecule first:

Molecule | Difference (log2), PP1 vs untreated [1, 3] | Difference (log2), PP1 vs untreated ([1]; log2 difference, pairwise comparison PP1 vs untreated, label-free quantification) | Difference (log2), untreated vs GFP (GFP-14-3-3β; [2]) | Difference (log2), untreated vs GFP (GFP-14-3-3β; log2 difference, pairwise comparison untreated vs GFP, label-free quantification)
RBM39 (protein, UniProt Q14498 2-530, looked up) RNA-binding protein 39: ADDIDIEAMLEAPYKKDENKLSSANGHEERSKKRKKSKSRSRSHERKRSKSKERKRSRDRERKKSKSRERKRSRSKERRRSRSRSRDRRFRGRYRSPYSGPKFNSAIRGKIGLPHSIKLSRRRSRSKSPFRKDKSPVREPIDNLTPEERDARTVFCMQLAARIRPRDLEEFFSTVGKVRDVRMISDRNSRRSKGIAYVEFVDVSSVPLAIGLTGQRVLGVPIIVQASQAEKNRAAAMANNLQKGSAGPMRLYVGSLHFNITEDMLRGIFEPFGRIESIQLMMDSETGRSKGYGFITFSDSECAKKALEQLNGFELAGRPMKVGHVTERTDASSASSFLDSDELERTGIDLGTTGRLQLMARLAEGTGLQIPPAAQQALQMSGSLAFGAVAEFSFVIDLQTRLSQQTEASALAAAASVQPLATQCFQLSNMFNPQTEEEVGWDTEIKDDVIEECNKHGGVIHIYVDKNSAQGNVYVKCPSIAAAIAAVNALHGRWFAGKMITAAYVPLPTYHNLFPDSMTATQLLVPSRR | 0.4791 log2 | – | 0.5608 log2 | –
FUBP3 (protein, UniProt Q96I24 2-572, looked up) Far upstream element-binding …: AELVQGQSAPVGMKAEGFVDALHRVRQIAAKIDSIPHLNNSTPLVDPSVYGYGVQKRPLDDGVGNQLGALVHQRTVITEEFKVPDKMVGFIIGRGGEQISRIQAESGCKIQIASESSGIPERPCVLTGTPESIEQAKRLLGQIVDRCRNGPGFHNDIDSNSTIQEILIPASKVGLVIGRGGETIKQLQERTGVKMVMIQDGPLPTGADKPLRITGDAFKVQQAREMVLEIIREKDQADFRGVRGDFNSRMGGGSIEVSVPRFAVGIVIGRNGEMIKKIQNDAGVRIQFKPDDGISPERAAQVMGPPDRCQHAAHIISELILTAQERDGFGGLAAARGRGRGRGDWSVGAPGGVQEITYTVPADKCGLVIGKGGENIKSINQQSGAHVELQRNPPPNSDPNLRRFTIRGVPQQIEVARQLIDEKVGGTNLGAPGAFGQSPFSQPPAPPHQNTFPPRSSGCFPNMAAKVNGNPHSTPVSGPPAFLTQGWGSTYQAWQQPTQQVPSQQSQPQSSQPNYSKAWEDYYKKQSHAASAAPQASSPPDYTMAWAEYYRQQVAFYGQTLGQAQAHSQEQ | 0.5248 log2 | – | 0.3039 log2 | –
STT3A (protein, UniProt P46977 1-705, looked up) Dolichyl-diphosphooligosacchar …: MTKFGFLRLSYEKQDTLLKLLILSMAAVLSFSTRLFAVLRFESVIHEFDPYFNYRTTRFLAEEGFYKFHNWFDDRAWYPLGRIIGGTIYPGLMITSAAIYHVLHFFHITIDIRNVCVFLAPLFSSFTTIVTYHLTKELKDAGAGLLAAAMIAVVPGYISRSVAGSYDNEGIAIFCMLLTYYMWIKAVKTGSICWAAKCALAYFYMVSSWGGYVFLINLIPLHVLVLMLTGRFSHRIYVAYCTVYCLGTILSMQISFVGFQPVLSSEHMAAFGVFGLCQIHAFVDYLRSKLNPQQFEVLFRSVISLVGFVLLTVGALLMLTGKISPWTGRFYSLLDPSYAKNNIPIIASVSEHQPTTWSSYYFDLQLLVFMFPVGLYYCFSNLSDARIFIIMYGVTSMYFSAVMVRLMLVLAPVMCILSGIGVSQVLSTYMKNLDISRPDKKSKKQQDSTYPIKNEVASGMILVMAFFLITYTFHSTWVTSEAYSSPSIVLSARGGDGSRIIFDDFREAYYWLRHNTPEDAKVMSWWDYGYQITAMANRTILVDNNTWNNTHISRVGQAMASTEEKAYEIMRELDVSYVLVIFGGLTGYSSDDINKFLWMVRIGGSTDTGKHIKENDYYTPTGEFRVDREGSPVLLNCLMYKMCYYRFGQVYTEAKRPPGFDRVRNAEIGNKDFELDVLEEAYTTEHWLVRIYKVKDLDNRGLSRT | 0.5123 log2 | – | 0.4915 log2 | –
SLC25A5 (protein, UniProt P05141 1-298, looked up) ADP/ATP translocase 2: MTDAAVSFAKDFLAGGVAAAISKTAVAPIERVKLLLQVQHASKQITADKQYKGIIDCVVRIPKEQGVLSFWRGNLANVIRYFPTQALNFAFKDKYKQIFLGGVDKRTQFWLYFAGNLASGGAAGATSLCFVYPLDFARTRLAADVGKAGAEREFRGLGDCLVKIYKSDGIKGLYQGFNVSVQGIIIYRAAYFGIYDTAKGMLPDPKNTHIVISWMIAQTVTAVAGLTSYPFDTVRRRMMMQSGRKGTDIMYTGTLDCWRKIARDEGGKAFFKGAWSNVLRGMGGAFVLVLYDEIKKYT | 0.4677 log2 | – | 0.2489 log2 | –
OASL (protein, UniProt Q15646 2-514, looked up) 2'-5'-oligoadenylate …: ALMQELYSTPASRLDSFVAQWLQPHREWKEEVLDAVRTVEEFLRQEHFQGKRGLDQDVRVLKVVKVGSFGNGTVLRSTREVELVAFLSCFHSFQEAAKHHKDVLRLIWKTMWQSQDLLDLGLEDLRMEQRVPDALVFTIQTRGTAEPITVTIVPAYRALGPSLPNSQPPPEVYVSLIKACGGPGNFCPSFSELQRNFVKHRPTKLKSLLRLVKHWYQQYVKARSPRANLPPLYALELLTIYAWEMGTEEDENFMLDEGFTTVMDLLLEYEVICIYWTKYYTLHNAIIEDCVRKQLKKERPIILDPADPTLNVAEGYRWDIVAQRASQCLKQDCCYDNRENPISSWNVKRARDIHLTVEQRGYPDFNLIVNPYEPIRKVKEKIRRTRGYSGLQRLSFQVPGSERQLLSSRCSLAKYGIFSHTHIYLLETIPSEIQVFVKNPDGGSYAYAINPNSFILGLKQQIEDQQGLPKKQQQLEFQGQVLQDWLGLGIYGIQDSDTLILSKKKGEALFPAS | – | 2.113 | – | -1.1672

— PMC7367873, “Dissecting the sequence determinants for dephosphorylation by the catalytic subunits of phosphatases PP1 and PP2A” (Nature Communications, 2020)
